Read-outs that look alike come from different tables or passages of the source.
Assays:
7D12-(GGGS)4-9G8 [1] = target: 7D12-(GGGS)4-9G8 (llama); test: SPR (Biacore), 25 °C
[2] = target: 7D12-(E4K4)5-VSG-[-AA]9G8; test: SPR, murine EGFR-Fc
[3] = target: 7D12-FAS-(AP)11-VGG-[-AA]9G8 (llama); test: SPR, murine EGFR-Fc
[4] = target: 7D12-ITA-(E4K4)4-IGG-[-AA]9G8 (llama); test: SPR, murine EGFR-Fc
7D12-(GGGS)4-9G8 [5] = target: 7D12-(GGGS)4-9G8 (llama); test: SPR (Biacore), 25 °C; remark: listed apart in the source
9G8-GS-7D12 = 9G8-GS-7D12 (llama); test: SPR (Biacore), 25 °C

B1: Mouse EGFR-Fc (Fc fusion, UniProt Q01279 25-647, looked up)
chain: LEEKKVCQGTSNRLTQLGTFEDHFLSLQRMYNNCEVVLGNLEITYVQRNYDLSFLKTIQEVAGYVLIALNTVERIPLENLQIIRGNALYENTYALAILSNYGTNRTGLRELPMRNLQEILIGAVRFSNNPILCNMDTIQWRDIVQNVFMSNMSMDLQSHPSSCPKCDPSCPNGSCWGGGEENCQKLTKIICAQQCSHRCRGRSPSDCCHNQCAAGCTGPRESDCLVCQKFQDEATCKDTCPPLMLYNPTTYQMDVNPEGKYSFGATCVKKCPRNYVVTDHGSCVRACGPDYYEVEEDGIRKCKKCDGPCRKVCNGIGIGEFKDTLSINATNIKHFKYCTAISGDLHILPVAFKGDSFTRTPPLDPRELEILKTVKEITGFLLIQAWPDNWTDLHAFENLEIIRGRTKQHGQFSLAVVGLNITSLGLRSLKEISDGDVIISGNRNLCYANTINWKKLFGTPNQKTKIMNNRAEKDCKAVNHVCNPLCSSEGCWGPEPRDCVSCQNVSRGRECVEKCNILEGEPREFVENSECIQCHPECLPQAMNITCTGRGPDNCIQCAHYIDGPHCVKTCPAGIMGENNTLVWKYADANNVCHLCHANCTYGCAGPGLQGCEVWPSGPKIPS
notes: also called muEGFR; murine EGFR-Fc; not shown: Fc part, not described
A Kd (7D12-(GGGS)4-9G8 [1]) of 160 nM, a Kd [2] of 2.6 nM and a Kd [3] of 0.6 nM were found for B1 in this work. The Kd [4] was 0.7 nM, the Kd (7D12-(GGGS)4-9G8 [5]) was 160 nM and the Kd (9G8-GS-7D12) was 58 nM.

Reference: patent US20250199010A1 (ALAMAR BIOSCIENCES, published 2025)
